The results in this text go back to PMC8629902, “Structure–function relationships explain CTCF zinc finger mutation phenotypes in cancer”.

This data set concerns the target T1, CTCF WT (UniProt P49711 1-727).
T1 sequence: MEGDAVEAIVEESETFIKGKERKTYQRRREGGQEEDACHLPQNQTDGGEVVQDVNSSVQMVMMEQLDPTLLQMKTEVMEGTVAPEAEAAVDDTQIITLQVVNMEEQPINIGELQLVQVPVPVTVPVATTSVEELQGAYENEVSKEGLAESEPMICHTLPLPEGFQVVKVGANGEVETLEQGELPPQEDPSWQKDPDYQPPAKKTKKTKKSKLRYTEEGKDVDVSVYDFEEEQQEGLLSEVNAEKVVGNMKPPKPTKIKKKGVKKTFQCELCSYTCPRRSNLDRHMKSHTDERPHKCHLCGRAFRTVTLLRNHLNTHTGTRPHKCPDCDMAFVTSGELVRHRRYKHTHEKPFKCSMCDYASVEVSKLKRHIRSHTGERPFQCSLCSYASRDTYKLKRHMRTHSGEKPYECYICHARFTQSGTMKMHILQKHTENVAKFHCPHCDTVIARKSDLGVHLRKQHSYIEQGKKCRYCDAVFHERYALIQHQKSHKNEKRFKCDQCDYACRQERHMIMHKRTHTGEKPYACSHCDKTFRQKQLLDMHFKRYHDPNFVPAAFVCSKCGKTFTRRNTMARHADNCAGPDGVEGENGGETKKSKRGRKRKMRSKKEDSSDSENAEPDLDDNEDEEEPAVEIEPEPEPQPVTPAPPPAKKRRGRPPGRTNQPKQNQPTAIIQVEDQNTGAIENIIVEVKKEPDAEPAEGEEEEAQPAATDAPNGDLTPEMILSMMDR
Nature of the data set: pull-down; TnT lysate protein with bead-bound DNA, 3 h at 4 C; beads washed before and after binding in PIB (250 mM NaCl, 50 mM Tris pH 8.0, 0.25% IGEPAL, EDTA-free protease inhibitor); anti-CTCF Western blot. The conditions noted are these: protein: ivt; tags: FLAG (pcDNA3.1-FLAG); label: 5' biotin on S3 strand; blunt.

B1: core CTCF binding site probe (dsDNA)
DNA 1: AGGACCAGCAGGGGGCGCA
DNA 2: TGCGCCCCCTGCTGGTCCT
Consider B1, for which the binding result is on record as “binds”.
